Source: paper PMC4136841, “Is Thymidine Glycol Containing DNA a Substrate of E. coli DNA Mismatch Repair System?”
Where a chain is given by its changes, count along the chain named.

Biological target: T1, MutS (Escherichia coli, UniProt P23909 1-853)
T1 sequence: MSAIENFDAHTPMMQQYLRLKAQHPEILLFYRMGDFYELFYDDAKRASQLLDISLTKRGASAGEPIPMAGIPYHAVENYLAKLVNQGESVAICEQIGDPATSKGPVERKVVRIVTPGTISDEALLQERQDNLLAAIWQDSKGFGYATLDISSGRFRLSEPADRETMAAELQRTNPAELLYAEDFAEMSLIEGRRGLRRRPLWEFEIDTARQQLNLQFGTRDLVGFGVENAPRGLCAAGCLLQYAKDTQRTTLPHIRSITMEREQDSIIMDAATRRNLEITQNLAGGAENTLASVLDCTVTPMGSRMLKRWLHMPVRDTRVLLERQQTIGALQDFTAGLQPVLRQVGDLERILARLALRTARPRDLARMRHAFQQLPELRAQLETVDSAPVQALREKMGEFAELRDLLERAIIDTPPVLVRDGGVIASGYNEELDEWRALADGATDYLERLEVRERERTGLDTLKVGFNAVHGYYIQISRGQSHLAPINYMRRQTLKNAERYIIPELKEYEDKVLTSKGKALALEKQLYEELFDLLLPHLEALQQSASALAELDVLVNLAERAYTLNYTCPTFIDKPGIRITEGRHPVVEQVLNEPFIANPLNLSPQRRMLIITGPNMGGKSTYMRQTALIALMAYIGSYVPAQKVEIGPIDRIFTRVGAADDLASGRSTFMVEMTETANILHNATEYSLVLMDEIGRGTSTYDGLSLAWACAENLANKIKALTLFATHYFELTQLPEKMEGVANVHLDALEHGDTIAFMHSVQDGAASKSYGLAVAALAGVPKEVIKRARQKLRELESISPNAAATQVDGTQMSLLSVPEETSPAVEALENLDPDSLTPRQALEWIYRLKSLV
Test: EMSA (Scatchard); 1 mM ADP, 5 mM Mg2+; EMSA: 20 mM HEPES pH 8.0, 125 mM KCl, 1 mM ADP, 5 mM MgCl2, 1 mg/ml BSA, 9% glycerol, 37 C 20 min (gel at 4 C); fluorescence: 25 mM Tris-HCl pH 7.5, 125 mM KCl, 5 mM MgCl2, 1 mM ADP, 20 C
Conditions: protein: recombinant, tags: His-tag (Ni-NTA purified), chain copies: 2, label: 5'-32P, blunt

B1: duplex IV (A/Tg) (dsDNA)
DNA 1: CAAGCCTATGCCCTCAGCACCCAAGGTGCC
DNA 2: GGCACCTTGGGTGCTGAGGGCATAGGCTTG
modifications: thymidine glycol (5R,6S) at T7 of strand 2
Q: With B1 as the binder, how does the Kd (strand 1 A24 : strand 2 Tg7) read?
A: 25 ± 3 nM

B2: duplex I (G/C) (dsDNA)
DNA 1: B1 DNA 1 with A24G
DNA 2: B1 DNA 2 with T7C
Q: How did the Kd turn out when B2 was run?
A: 32 ± 3.3 nM

B3: duplex II (G/T) (dsDNA)
DNA 1: B1 DNA 1 with A24G
DNA 2: B1 DNA 2
Q: B3 was tested. Which Kd (G/T mismatch strand 1 G24 : strand 2 T7) did it give?
A: 7 ± 1.5 nM

B4: duplex III (G/Tg) (dsDNA)
DNA 1: B1 DNA 1 with A24G
DNA 2: B1 DNA 2
modifications: thymidine glycol (5R,6S) at T7 of strand 2
Q: For B4, which Kd (strand 1 G24 : strand 2 Tg7) is on record?
A: 44 ± 2.3 nM
